Laboratory results from PMC4265266.
Several values for one entry are separate records, joined by “and”; a condition that tells them apart may be missing. Equal values may be shown once.

Molecular target: FLAG-tagged recombinant human butyrylcholinesterase (^FLAGBChE) (human) (UniProt P06276)
Test: non-reducing SDS-PAGE with immuno

In the case of “FLAG-tagged recombinant human butyrylcholinesterase (^FLAGBChE) (from UniProt P06276 29-602) (enzyme)”, the stoichiometry N is reported as 2 and 4.
